Ends that are not written are not given here.
Molecular target: T1, RDM15 Tudor domain (residues 598-662), wild type (Arabidopsis thaliana)
T1 chain: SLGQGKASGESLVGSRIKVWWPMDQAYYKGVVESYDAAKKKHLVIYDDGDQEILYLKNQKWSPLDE
Test: ITC

B1: H3(1-15) K4me1 peptide (peptide)
chain: ARTK(Me)QTARKSTGGKA
- Kd: 1.47 µM

Reference: paper PMC8184781 (2021)
